Test results taken from patent US20220017634A1 (DENALI THERAPEUTICS, published 2022).
Numbering of substitutions follows the chain as printed.

B1: Clone CH2A2.4, Fc displayed on phage (designed binder)
chain: APELLGGPSVFLFPPKPKDTLMISRTPEVTCVVVDVSHEDPEVSFEWYVDGVPVRWEWQWPREEQYNSTYRVVSVLTVLHQDWLNGKEYKCKVSNKALPAPIEKTISKAKGQPREPQVYTLPPSRDELTKNQVSLTCLVKGFYPSDIAVEWESNGQPENNYKTTPPVLDSDGSFFLYSKLTVDKSRWQQGNVFSCSVMHEALHNHYTQKSLSLSPGK
notes: As m16
B2: Clone CH2A2.1, Fc displayed on phage (designed binder)
chain: B1 chain with S44E, E46I, P53D, W56Y, W60L
notes: Fc dimer on phage (pIII fusion with c-Myc and 6xHis tags paired with soluble Fc)
B3: Clone CH2A2.16, Fc displayed on phage (designed binder)
chain: B1 chain with S44W, P53F, R55G, W56V, E57A, W58Y, Q59D, W60V
notes: As m16
B4: Clone CH2A2.5, Fc displayed on phage (designed binder)
chain: B1 chain with S44A, E46T, W60N
notes: As m16

Key:
[1] = molecular target: T1, human transferrin receptor (human TfR) (human, UniProt P02786 89-760, limits assumed); assay: phage ELISA
T1 construct: Recombinant target coated on plates or biotinylated and captured on streptavidin (ELISA, BLI); also called huTfR
T1 sequence (P02786 89-760 limits assumed): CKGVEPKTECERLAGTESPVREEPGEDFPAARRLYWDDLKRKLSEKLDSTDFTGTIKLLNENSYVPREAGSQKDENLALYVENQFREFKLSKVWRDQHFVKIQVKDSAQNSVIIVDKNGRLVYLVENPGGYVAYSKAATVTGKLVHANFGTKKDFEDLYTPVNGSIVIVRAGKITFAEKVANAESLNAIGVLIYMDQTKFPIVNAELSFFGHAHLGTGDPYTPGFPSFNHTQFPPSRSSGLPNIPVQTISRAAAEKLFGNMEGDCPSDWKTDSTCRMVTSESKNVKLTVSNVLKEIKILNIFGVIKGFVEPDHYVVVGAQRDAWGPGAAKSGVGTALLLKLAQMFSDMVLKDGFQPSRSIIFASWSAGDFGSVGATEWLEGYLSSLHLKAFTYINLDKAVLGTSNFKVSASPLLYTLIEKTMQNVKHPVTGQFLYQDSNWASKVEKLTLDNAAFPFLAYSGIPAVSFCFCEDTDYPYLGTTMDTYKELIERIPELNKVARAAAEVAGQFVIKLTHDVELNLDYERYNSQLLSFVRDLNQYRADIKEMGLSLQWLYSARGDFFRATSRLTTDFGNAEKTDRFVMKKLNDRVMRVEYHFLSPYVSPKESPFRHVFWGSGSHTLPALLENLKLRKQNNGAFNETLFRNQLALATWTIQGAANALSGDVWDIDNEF
Protocol: (§1) Clones were selected from panning outputs and grown in individual wells of 96-well deep-well plates. The clones were either induced for periplasmic expression using autoinduction media (obtained from EMD Millipore) or infected with helper phage for phage-display of the individual Fc variants on phage. The cultures were grown overnight and spun to pellet E. coli. For phage ELISA, phage containing supernatant was used directly. For periplasmic expression, pellets were resuspended in 20% sucrose, followed by dilution at 4:1 with water, and shaken at 4° C. for 1 hour. Plates were spun to pellet the solids and supernatant was used in the ELISA.
(§2) ELISA plates were coated with target, typically at […] overnight, then blocked with 1% BSA before addition of phage or periplasmic extracts. […] The plates were washed again, and then developed with TMB reagent and quenched with 2N sulfuric acid. Absorbance at 450 nm was quantified using a plate reader (BioTek®) and binding curves were plotted using Prism software where applicable. Absorbance signal for tested clones was compared to negative control (phage or paraplasmic extract lacking Fc). In some assays, soluble holo-transferrin was added during the binding step, typically at significant molar excess (greater than 10-fold excess).
(§3) Individual CH2A2 variants were expressed on the surface of phage and assayed for binding to human TfR, cyno TfR, or an irrelevant control by ELISA. Expression of Fc was confirmed by ELISA against anti-Myc antibody 9E10, which bound to the C-terminal c-Myc epitope tag. […] The three clones from group 1 also bound to cyno TfR, whereas the one clone from group 2 (i.e., clone 2A2.16) was specific for human TfR.

[2] = molecular target: cynomolgus transferrin receptor (cyno TfR) (cynomolgus monkey, UniProt H9EXL1 89-760 (rhesus entry)); assay: phage ELISA
Chain of cynomolgus transferrin receptor (cyno TfR) (chain, as listed by the source): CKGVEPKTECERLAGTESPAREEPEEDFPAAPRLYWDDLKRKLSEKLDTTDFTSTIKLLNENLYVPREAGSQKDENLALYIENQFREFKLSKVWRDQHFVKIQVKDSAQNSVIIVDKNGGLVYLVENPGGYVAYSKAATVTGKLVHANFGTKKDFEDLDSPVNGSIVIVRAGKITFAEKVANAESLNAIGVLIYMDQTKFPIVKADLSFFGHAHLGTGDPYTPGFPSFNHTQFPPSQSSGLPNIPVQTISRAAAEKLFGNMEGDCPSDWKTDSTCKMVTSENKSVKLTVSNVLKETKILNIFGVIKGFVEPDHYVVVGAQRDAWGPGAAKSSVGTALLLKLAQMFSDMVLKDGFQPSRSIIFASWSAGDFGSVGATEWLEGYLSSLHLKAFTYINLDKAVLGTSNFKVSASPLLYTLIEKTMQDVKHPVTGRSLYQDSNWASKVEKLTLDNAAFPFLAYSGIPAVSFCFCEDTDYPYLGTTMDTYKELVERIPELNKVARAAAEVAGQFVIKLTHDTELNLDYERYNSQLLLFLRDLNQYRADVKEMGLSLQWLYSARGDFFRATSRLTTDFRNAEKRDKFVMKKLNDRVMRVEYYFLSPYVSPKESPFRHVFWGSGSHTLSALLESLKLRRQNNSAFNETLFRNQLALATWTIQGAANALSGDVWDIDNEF
Protocol: as §1, §2, §3

Row | Binder | binding result [1] | binding result [2]
1 | B1 | binds | 
2 | B2 | binds | 
3 | B3 | binds | no binding
4 | B4 | binds | 
